Measurements taken from patent publication US20120100166A1 (ZYNGENIA, published 2012).
Where a chain is given by its changes, count along the chain named. No end group written: not given here.

T1: angiopoietin-2 (Ang2) (human, UniProt O15123 68-496, limits assumed, biotinylated in Examples 22-24 (R&D cat#BT633))
T1 construct: also called rhAng2; recombinant Ang2
T1 sequence (looked up): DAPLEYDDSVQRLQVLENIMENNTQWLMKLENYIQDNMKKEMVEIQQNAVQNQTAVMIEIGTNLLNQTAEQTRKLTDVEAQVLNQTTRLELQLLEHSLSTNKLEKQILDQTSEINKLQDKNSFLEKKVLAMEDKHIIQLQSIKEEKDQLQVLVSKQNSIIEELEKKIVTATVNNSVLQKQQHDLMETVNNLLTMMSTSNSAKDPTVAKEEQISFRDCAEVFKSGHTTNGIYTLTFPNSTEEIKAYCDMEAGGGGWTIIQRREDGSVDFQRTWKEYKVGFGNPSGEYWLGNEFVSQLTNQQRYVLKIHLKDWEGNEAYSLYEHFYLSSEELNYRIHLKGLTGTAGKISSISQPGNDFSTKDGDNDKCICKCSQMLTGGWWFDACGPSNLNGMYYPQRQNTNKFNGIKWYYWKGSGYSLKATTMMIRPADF

B1: LM32 variant SEQ ID NO:88 expressed as MBP fusion protein (other, not shown: large carriers; small tags and cut ends)
chain: KSLSLSPGSGGGSMGAQTNFMPMDNDEGLLYEQFILQQGLE
modifications: not fully specified (N-terminus); also: fused to maltose binding protein carrier at N-terminus
B2: LM32 variant SEQ ID NO:91 expressed as MBP fusion protein (other, not shown: large carriers; small tags and cut ends)
chain: B1 chain with G28L, L29T
modifications: not fully specified (N-terminus); also: fused to maltose binding protein carrier at N-terminus
B3: LM32 variant SEQ ID NO:94 expressed as MBP fusion protein (other, not shown: large carriers; small tags and cut ends)
chain: B1 chain with G28A, L36Y
modifications: not fully specified (N-terminus); also: fused to maltose binding protein carrier at N-terminus
B4: LM32 variant SEQ ID NO:100 expressed as MBP fusion protein (other, not shown: large carriers; small tags and cut ends)
peptide: B1 chain with N25D, G28L
modifications: not fully specified (N-terminus); also: fused to maltose binding protein carrier at N-terminus
B5: LM32 variant SEQ ID NO:99 expressed as MBP fusion protein (other, not shown: large carriers; small tags and cut ends)
chain: B1 chain with N25Q, G28L
modifications: not fully specified (N-terminus); also: fused to maltose binding protein carrier at N-terminus
B6: LM32 variant SEQ ID NO:97 expressed as MBP fusion protein (other, not shown: large carriers; small tags and cut ends)
chain: B1 chain with G28A, Q33E
modifications: not fully specified (N-terminus); also: fused to maltose binding protein carrier at N-terminus
B7: LM32 variant SEQ ID NO:90 expressed as MBP fusion protein (other, not shown: large carriers; small tags and cut ends)
chain: B1 chain with G28A
modifications: not fully specified (N-terminus); also: fused to maltose binding protein carrier at N-terminus
B8: LM32 variant SEQ ID NO:96 expressed as MBP fusion protein (other, not shown: large carriers; small tags and cut ends)
chain: B1 chain with Q33E
modifications: not fully specified (N-terminus); also: fused to maltose binding protein carrier at N-terminus
B9: LM32 variant SEQ ID NO:93 expressed as MBP fusion protein (other, not shown: large carriers; small tags and cut ends)
chain: B1 chain with L36Y
modifications: not fully specified (N-terminus); also: fused to maltose binding protein carrier at N-terminus
B10: Her-sL-RGD4C (bispecific antibody)
light (part 1 of 2): not shown
light (part 2 of 2): GGGSCDCRGDCFC
heavy: not shown
notes: also called C-terminal fusion of integrin αvβ3 targeting MRD with the ErbB2 antibody with the short linker peptide; not shown: kappa light chain constant region; heavy chain constant region
B11: Her-1L-RP (bispecific antibody)
light (part 1 of 2): not shown
light (part 2 of 2): SSGGGGSGGGGGGSSRSSSFYSCLESLVNGPAEKSRGQWDGCRKK
heavy: not shown
notes: also called Her-lL-RP; not shown: kappa light chain constant region; heavy chain constant region
B12: LM32 variant SEQ ID NO:142 expressed as MBP fusion protein (other, not shown: large carriers; small tags and cut ends)
chain: KSLSLSPGSGGGSMGAQTNFMPMDNDELLLYEQFI
modifications: not fully specified (N-terminus); also: fused to maltose binding protein carrier at N-terminus
B13: LM32 variant SEQ ID NO:143 expressed as MBP fusion protein (other, not shown: large carriers; small tags and cut ends)
chain: B12 chain with D26E
modifications: not fully specified (N-terminus); also: fused to maltose binding protein carrier at N-terminus

Experiments:
[1] = biological target: T1, angiopoietin-2 (Ang2); test: ELISA, rhAng2 coated, MRD-MBP fusion detected with HRP anti-MBP mAb; EC50 from a 4 parameter fit
[2] = biological target: T1, angiopoietin-2 (Ang2); test: MBP fusion protein tested for binding to Ang2; method not restated (direct-binding ELISA in Example 19)
Procedure: For detection of direct binding of MRD-MBP fusions to Ang2, the following ELISA was performed. […] MBP fusion proteins were serially diluted in Blocking buffer and added to wells for 2 hours at RT. After washing (8×300 μl wash buffer), samples were treated with HRP-mouse anti MBP mAb (NEB, cat #E8038S), diluted 1:4000 in Blocking buffer. After incubation for 1 hour at RT, wells were washed (8×3000 wash buffer) prior to receiving 100 μl of TMB substrate (KPL Laboratories). Color development was stopped with 100 μl of H₂SO₄, and absorbance was read at 450 nm.

[3] = biological target: integrin αvβ3 (ELISA antigen) (UniProt P06756 31-992; P05106 27-718, limits assumed); test: ELISA on coated antigen, absorbance at 405 nm, BSA-coated wells as control; single condition; the bar is labelled Antigen, taken as the target of the MRD of the construct
[4] = biological target: T2, insulin-like growth factor-I receptor (IGF1R) (UniProt P08069 31-932, limits assumed); test: ELISA on coated antigen, absorbance at 405 nm, BSA-coated wells as control; single condition
T2 construct: also called immobilized IGF-1R; IGR1R

Sequence of integrin αvβ3 (ELISA antigen) (P06756 31-992 limits assumed, chain 1 of 2): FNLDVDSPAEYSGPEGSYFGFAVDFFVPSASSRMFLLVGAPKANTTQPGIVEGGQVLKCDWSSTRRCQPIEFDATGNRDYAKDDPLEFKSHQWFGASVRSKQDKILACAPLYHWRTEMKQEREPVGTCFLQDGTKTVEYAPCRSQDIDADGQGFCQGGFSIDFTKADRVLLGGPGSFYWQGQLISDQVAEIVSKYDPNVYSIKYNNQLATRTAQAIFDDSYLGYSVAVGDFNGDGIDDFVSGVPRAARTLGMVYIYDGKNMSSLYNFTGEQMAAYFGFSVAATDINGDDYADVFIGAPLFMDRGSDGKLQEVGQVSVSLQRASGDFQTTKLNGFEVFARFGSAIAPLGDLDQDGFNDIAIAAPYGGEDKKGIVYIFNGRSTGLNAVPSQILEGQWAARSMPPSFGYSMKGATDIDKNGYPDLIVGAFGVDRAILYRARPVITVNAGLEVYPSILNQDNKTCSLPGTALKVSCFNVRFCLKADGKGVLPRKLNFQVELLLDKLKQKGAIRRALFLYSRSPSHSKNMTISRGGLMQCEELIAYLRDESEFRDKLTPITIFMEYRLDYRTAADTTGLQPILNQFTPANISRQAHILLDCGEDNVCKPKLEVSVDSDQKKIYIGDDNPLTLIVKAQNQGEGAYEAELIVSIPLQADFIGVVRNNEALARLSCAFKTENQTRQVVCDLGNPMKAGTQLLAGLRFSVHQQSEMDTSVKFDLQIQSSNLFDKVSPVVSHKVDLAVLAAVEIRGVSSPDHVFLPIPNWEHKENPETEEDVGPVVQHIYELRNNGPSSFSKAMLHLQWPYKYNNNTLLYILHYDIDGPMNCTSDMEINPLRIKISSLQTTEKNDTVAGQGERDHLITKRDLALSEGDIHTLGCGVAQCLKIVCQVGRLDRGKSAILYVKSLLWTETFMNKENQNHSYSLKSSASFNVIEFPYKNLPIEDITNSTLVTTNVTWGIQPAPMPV
Sequence of integrin αvβ3 (ELISA antigen) (P05106 27-718 limits assumed, chain 2 of 2): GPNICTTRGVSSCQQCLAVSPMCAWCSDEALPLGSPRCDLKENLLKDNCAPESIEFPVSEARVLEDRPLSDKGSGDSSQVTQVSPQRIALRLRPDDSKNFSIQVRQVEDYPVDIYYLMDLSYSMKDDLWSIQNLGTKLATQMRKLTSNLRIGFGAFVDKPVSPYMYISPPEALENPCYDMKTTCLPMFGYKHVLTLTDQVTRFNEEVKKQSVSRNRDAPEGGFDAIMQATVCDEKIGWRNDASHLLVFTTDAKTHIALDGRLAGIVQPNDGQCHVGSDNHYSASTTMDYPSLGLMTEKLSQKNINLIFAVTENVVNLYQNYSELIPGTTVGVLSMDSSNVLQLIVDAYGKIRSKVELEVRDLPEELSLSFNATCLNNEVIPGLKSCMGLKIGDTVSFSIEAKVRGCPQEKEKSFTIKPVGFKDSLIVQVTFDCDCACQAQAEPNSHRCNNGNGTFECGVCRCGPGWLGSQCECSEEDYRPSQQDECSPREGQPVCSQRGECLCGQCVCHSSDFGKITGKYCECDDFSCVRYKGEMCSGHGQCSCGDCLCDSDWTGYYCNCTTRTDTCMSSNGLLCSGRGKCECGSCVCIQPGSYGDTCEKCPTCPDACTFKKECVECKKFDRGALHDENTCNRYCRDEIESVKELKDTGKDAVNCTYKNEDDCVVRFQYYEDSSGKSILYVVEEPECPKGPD

| Binder | EC50 [1] | EC50 [2] | further results |
| --- | --- | --- | --- |
| PGSGGGSMGAQTNFMPMDNDELLLYEQFILQQGLE (other) [Lm32 KtoS] | 0.199 nM |  |  |
| MGAQTNFMPMGDDELLLYEQFILQQGLE (other) [L1-7D MGD] | 0.6 nM |  |  |
| B1 |  | 1.04 nM |  |
| B2 |  | 1.42 nM |  |
| B3 |  | 0.392 nM |  |
| B4 |  | 0.24 nM |  |
| B5 |  | 0.383 nM |  |
| B6 |  | 0.426 nM |  |
| B7 |  | 0.182 nM |  |
| B8 |  | 0.922 nM |  |
| B9 |  | 0.902 nM |  |
| B10 |  |  | binding result [3]: no binding (tested: not shown) |
| MGAQTNFMPMNDDELLLYEQFILQQGLE (other) [L1-7D MND] | 0.411 nM |  |  |
| MGAQTNFMPMTDDELLLYEQFILQQGLE (other) [L1-7D MTD] | 7.34 nM |  |  |
| B11 |  |  | binding result [4]: no binding (tested: not shown) |
| B12 |  | 1.08 nM |  |
| B13 |  | 20.7 nM |  |
| MGAQTNFMPMHDDELLLYEQFILQQGLE (other) [L1-7D MHD] | 17 nM |  |  |
| MGAQTNFMPMSDDELLLYEQFILQQGLE (other) [L1-7D MSD] | 1.38 nM |  |  |
